{"source": "paper PMC4961952", "about": "(Scientific Reports, 2016)", "proteins": {"B1": {"name": "TH1(MBP): recombinant human tyrosine hydroxylase isoform 1, purified on amylose resin as His6-MBP-TH1 and cleaved by TEV protease (enzyme)", "chain": "not shown", "notes": "residues glycine and alanine left in front of the starting methionine after removal of the fusion partner (told in words); tyrosine hydroxylase isoform 1 (TH1), human, 497 residues (Met1-Gly497); cDNA from pET-TH cloned into pET-MBP-1a; extra glycine in position 2 from cloning; numbers count on: human TH1; Iron-containing preparation (0.25 mol/mol subunit), no cobalt; After cleavage the chain is …"}, "B2": {"name": "TH1(ZZ): recombinant human tyrosine hydroxylase isoform 1, purified on TALON resin as His6-ZZ-TH1 and cleaved by TEV protease (enzyme)", "chain": "not shown", "notes": "residues glycine and alanine left in front of the starting methionine after removal of the fusion partner (told in words); tyrosine hydroxylase isoform 1 (TH1), human, 497 residues (Met1-Gly497); cDNA from pET-TH cloned into pET-ZZ-1a; extra glycine in position 2 from cloning; numbers count on: human TH1; Contains cobalt from the TALON resin (0.70 mol/mol subunit); After cleavage the chain is the …"}}, "molecular_target": "the molecule itself", "assay": "SEC; analytical gel filtration of the TEV-cleaved fusion protein on a Superdex 200 Increase 10/300 column"}
{"protein": "B1", "values": [{"measurement": "stoichiometry N", "result": 4}]}
{"protein": "B2", "values": [{"measurement": "stoichiometry N", "result": 4}]}
